What was measured:
Assay in all cases: cryo-EM structure; single-particle cryo-EM of SEC-purified channel in 20 mM Tris pH 7.5, 50 mM NaCl, 1 mM DDM, 0.1 mM CHS; 1 uM CaCl2 added (Ca2+-bound); homopentamer
[1] = target: chicken BEST1, residues 1-345 (BEST1_(345)) (chicken)
[2] = target: chicken BEST1, residues 1-345, W287F mutant (BEST1_(345) W287F) (chicken)
[3] = target: chicken BEST1, residues 1-405 (BEST1_(405)) (chicken)

Q: How did the stoichiometry N [1] turn out when “chicken BEST1, residues 1-345 (BEST1_(345)) (domain or fragment)” was run?
A: 5

Q: Which stoichiometry N [2] does the source give for “chicken BEST1, residues 1-345, W287F mutant (BEST1_(345) W287F) (domain or fragment)” here?
A: 5

Q: “chicken BEST1, residues 1-405 (BEST1_(405)) (domain or fragment)” was tested. Which stoichiometry N [3] did it give?
A: 5
